From article PMC5691135, “The semiquinone swing in the bifurcating electron transferring flavoprotein/butyryl-CoA dehydrogenase complex from Clostridium difficile” (Nature Communications, 2017)

Target: the molecule itself
Experiment: crystal structure; X-ray structure of the co-produced and co-purified (EtfAB/Bcd)4 complex at 3.1 Å, D state; crystallised in 0.1 M calcium acetate, 14 % (v/v) PEG 400, 0.1 M MES, pH 6.5; protein at 20 mg/ml in 10 mM MOPS and 1 mM FAD, pH 7.0

B1: Butyryl-CoA dehydrogenase (Bcd) of the EtfAB/Bcd complex from Clostridium difficile (enzyme)
chain: MDLNSKKYQMLKELYVSFAENEVKPLATELDEEERFPYETVEKMAKAGMMGIPYPKEYGGEGGDTVGYIMAVEELSRVCGTTGVILSAHTSLGSWPIYQYGNEEQKQKFLRPLASGEKLGAFGLTEPNAGTDASGQQTTAVLDGDEYILNGSKIFITNAIAGDIYVVMAMTDKSKGNKGISAFIVEKGTPGFSFGVKEKKMGIRGSATSELIFEDCRIPKENLLGKEGQGFKIAMSTLDGGRIGIAAQALGLAQGALDETVKYVKERVQFGRPLSKFQNTQFQLADMEVKVQAARHLVYQAAINKDLGKPYGVEAAMAKLFAAETAMEVTTKAVQLHGGYGYTRDYPVERMMRDAKITEIYEGTSEVQRMVISGKLLK
notes: Butyryl-CoA dehydrogenase of Clostridium difficile DSM 1296 (ATCC 9689), gene bcd (CD 1054); N-terminal helical domain 1-116, medial β-sheet domain 117-227, C-terminal helical domain 228-378; Tetramer that forms the core of the (EtfAB/Bcd)4 complex; also called Bcd1; Bcd2
stoichiometry N: 4
